The target of this assay is GST-MoMkk1 (Magnaporthe oryzae) (UniProt G4N6Z6). The assay is described as follows: MST.

The substance His-MoPtc1 (enzyme) yielded a Kd of 1050 nM.

Turning to His-MoPtc2 (enzyme), the Kd stood at 2270 nM.

These data come from publication PMC9276948.
